Results taken from paper PMC2120337.

Target: bacterially expressed beta18 (Drosophila)
Test: chymotrypsin protection

Sequence of bacterially expressed beta18 (Drosophila) (Q00963 whole entry): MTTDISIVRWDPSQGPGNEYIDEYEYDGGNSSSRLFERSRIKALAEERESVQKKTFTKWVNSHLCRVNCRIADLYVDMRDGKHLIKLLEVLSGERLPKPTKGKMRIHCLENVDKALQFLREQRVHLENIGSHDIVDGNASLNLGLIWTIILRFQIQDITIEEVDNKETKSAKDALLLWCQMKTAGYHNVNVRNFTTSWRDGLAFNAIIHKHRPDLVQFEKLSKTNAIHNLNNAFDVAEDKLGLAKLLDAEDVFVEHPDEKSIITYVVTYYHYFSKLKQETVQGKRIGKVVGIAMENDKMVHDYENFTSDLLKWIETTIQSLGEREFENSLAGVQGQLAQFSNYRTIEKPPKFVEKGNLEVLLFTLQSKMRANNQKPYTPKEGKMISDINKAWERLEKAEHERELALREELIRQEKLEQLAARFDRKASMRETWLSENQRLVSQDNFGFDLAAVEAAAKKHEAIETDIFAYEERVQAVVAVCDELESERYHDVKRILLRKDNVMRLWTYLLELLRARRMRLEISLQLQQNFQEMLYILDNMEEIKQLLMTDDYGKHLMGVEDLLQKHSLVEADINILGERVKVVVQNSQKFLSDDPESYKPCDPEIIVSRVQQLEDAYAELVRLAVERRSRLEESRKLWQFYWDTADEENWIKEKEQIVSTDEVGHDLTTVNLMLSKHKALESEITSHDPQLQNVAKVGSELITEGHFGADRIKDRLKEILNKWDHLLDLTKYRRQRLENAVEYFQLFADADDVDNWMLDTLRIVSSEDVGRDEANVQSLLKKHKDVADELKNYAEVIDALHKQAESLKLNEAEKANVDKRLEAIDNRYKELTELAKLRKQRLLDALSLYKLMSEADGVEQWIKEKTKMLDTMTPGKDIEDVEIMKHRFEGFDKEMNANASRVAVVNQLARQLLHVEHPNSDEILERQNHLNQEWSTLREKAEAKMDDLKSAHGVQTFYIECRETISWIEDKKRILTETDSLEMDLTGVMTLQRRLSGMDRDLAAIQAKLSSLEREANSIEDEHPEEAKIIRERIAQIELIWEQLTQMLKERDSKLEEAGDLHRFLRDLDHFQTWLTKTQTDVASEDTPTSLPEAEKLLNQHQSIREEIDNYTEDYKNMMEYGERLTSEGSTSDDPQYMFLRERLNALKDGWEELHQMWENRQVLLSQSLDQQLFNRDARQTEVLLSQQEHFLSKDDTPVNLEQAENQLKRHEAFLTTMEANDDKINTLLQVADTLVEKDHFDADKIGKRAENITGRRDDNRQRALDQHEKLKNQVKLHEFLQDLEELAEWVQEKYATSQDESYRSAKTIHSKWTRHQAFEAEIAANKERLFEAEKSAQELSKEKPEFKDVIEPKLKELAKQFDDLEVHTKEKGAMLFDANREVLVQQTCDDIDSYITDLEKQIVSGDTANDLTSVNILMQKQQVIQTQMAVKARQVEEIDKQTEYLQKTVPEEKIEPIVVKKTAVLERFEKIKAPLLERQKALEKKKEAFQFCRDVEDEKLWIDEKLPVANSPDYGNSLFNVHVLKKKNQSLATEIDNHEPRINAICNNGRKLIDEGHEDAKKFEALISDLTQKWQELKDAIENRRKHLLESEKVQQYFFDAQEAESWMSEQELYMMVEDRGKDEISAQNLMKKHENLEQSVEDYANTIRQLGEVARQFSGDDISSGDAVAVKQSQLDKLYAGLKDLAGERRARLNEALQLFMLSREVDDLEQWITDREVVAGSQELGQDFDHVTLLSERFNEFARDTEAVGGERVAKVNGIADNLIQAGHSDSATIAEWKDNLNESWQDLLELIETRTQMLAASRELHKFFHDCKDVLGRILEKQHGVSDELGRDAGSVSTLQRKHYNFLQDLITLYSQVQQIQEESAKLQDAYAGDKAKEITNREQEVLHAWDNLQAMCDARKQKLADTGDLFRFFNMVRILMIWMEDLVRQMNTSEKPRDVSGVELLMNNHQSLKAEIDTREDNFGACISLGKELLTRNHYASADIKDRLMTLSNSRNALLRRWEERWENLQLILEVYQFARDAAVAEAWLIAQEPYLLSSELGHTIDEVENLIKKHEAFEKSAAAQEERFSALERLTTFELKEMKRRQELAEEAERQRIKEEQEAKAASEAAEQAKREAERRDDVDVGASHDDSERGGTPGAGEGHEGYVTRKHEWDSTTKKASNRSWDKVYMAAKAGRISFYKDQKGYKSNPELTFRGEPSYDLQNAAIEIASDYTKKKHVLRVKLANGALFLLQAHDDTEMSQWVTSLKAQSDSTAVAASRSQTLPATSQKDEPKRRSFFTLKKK

B1: bacterially expressed alpha0-1(R22S) (domain or fragment)
chain: MENFTPKEVKILETVEDIQERSEQVLSRYNDFKIETRQKREKLEDSRRFQYFKRDADELESWIHEKLQAASEESYRDPTNLQAKIQKHQAFEAEVSAHSNAIVSLDNTGQEMINQQHFASESIQVRLDELHKLWELLLSRLAEKGLKLQQ
In the case of B1, the percent intact (chymotrypsin protection, beta18 present) is reported as 61.2%.
